Data reported in the DeepSol protein solubility set.

Test: soluble on expression in E. coli; label from the status in PepcDB or PDB records

Sequence | soluble on expression in E. coli
MSLKIVLTGSIGRINQTLVPKLTHAGHEVTVISHQATRSSLIKVFRATPAIGRLDDEAFLTKTFMGADVVYLMVTGIAASDDLYTAAKRQADIYAAAIKAAGVKRVVNLSSVGADLGPEVGALYMYHIIEQTLTTALPDVDLTFIRPTAMYYNLLSSVPTVKKSHRIYTNANLAVKNVWVAPVDVTTVLIKALTEPTPGQTVTYVASDEKTYLEVASALSQALKMPDLRVSQVPDEVMQDHLVTAGTPVAFAREYVKTVAYQRDHDFYADYRAHQPRLGDVKLADFAEGHHHHHH | not soluble
MAHHHHHHMRNMNDKNNVHNNYYYLKLENVNNGWRNKELKNDITNENIYQFIGKKKKNYSSSEMSKNSYSTCNTNNNIYINYNNNNNMYNNYNNNIYKNLNNRNINYKGYKFKQNYHTNAYVNISKNRNYYYPSESKKLTNEYNKYDFDNLEKRECKIINDESYKIEETTDMENDMLYIHNDSLPSHQPTINNNTQELYHINNYNNNIYFYEPCEKDNYLDSSIKDIYFDIYSNDTSENIKNETNDIINVDQKGNKYEENNINISNNTHEYKTFVNDDKQLLLDHIKRLEYQNNIFLNNMLNMYYVCIDYIKLQDDKIKEHEQVINSQKEFISNLKKQLSSNDNTNVAYNININHINKYKHVTK | not soluble
AHHHHHHGSIRRVKREIRVIGFDDGTFPHKKRGEKVILVGIVMKGGSDVLGAVSRWITIDGLDVTEAIIDSILSSRFRGDLRVILLKGITYAGFNVVDVNRVFRETGLPLIVVVRKRPDFEAIENALRKHFEDWEKRMELIKAGGKIYELIPGKVYYQAIGIDAETAAKIIRATSRNSLIPEALRIAHIVASAVMRGESSKE | not soluble
AKDWFVAVFANMAHNENKITKISDSLKEYNKRVQEKYAKYDSGKGDSKYSETYLQYVEGGSLTSIFGVRSLGINPADGKEIYLRPDGTITYDWNAADQVVIGNEEPKLQGTFGFNLRWKQFSLYSTFMYEFGGQRYNSTLVSKVENAHIQSSNVDRRVLTGRWQKPGDCTPYGRLQTDGVVAVTRPTSRFIQDYNVLTFNSLTLGYDFNAEWLKKARIGLLRVELSGNDLFRVATVRAERGLDYPYSRSFAASVKMSF | not soluble
MGSDKIHHHHHHMVPHLITALNGPLLELEKKILDATPSIERWFRLEWQEHTPPFYCSVDLRNAGFKLAPVDTNLFPGGFNNLAPEMLPLAVQAAMAAIEKICPDAKNLLLIPERHTRNMFYLQNVARLSLIMRQAGLNVRLGSLSEEITEPTPIELPDGQTLVVEPLARLGTKDRRLGLKDFDPCSILLNNDLSAGIPPILENINEQYLLPPLHAGWSTRRKSSHFAAYDEVAKKFAKLIDIDQWMVNPYFARCSGVNFHERIGEEELADSVEAVLKKIAKKYREYGIKETPYVVVKADAGTYGMGIMTVRDPSEVKGLNRKERNKMSVVKEGLEVSDVIIQEGVHTFEKVNEAVAEPVVYMIDRYVVGGFYRVHTGRGNDENLNAPGMHFVPLAFAPNGIPDSHAKPGAAVPNRFYMYGVVARLALLAASIELEKTDPNPIL | not soluble
MKKVAIVGLGWLGMPLAMSLSARGWQVTGSKTTQDGVEAARMSGIDSYLLRMEPELVCDSDDLDALMDADALVITLPARRSGPGDEFYLQAVQELVDSALAHRIPRIIFTSSTSVYGDAQGTVKETTPRNPVTNSGRVLEELEDWLHNLPGTSVDILRLAGLVGPGRHPGRFFAGKTAPDGEHGVNLVHLEDVIGAITLLLQAPKGGHIYNICAPAHPARNVFYPQMARLLGLEPPQFRNSLDSGKGKIIDGSRICNELGFEYQYPDPLVMPLE | soluble
TITEWSVNMYNHLRGTGEDENILFSPLSIALAMGMMELGA | soluble
MVTVVDRVTDRRLRHPEKAHRPDTSVQKKPDWIRVKAPTSQVYKETHGIVRAHKLVTVCEEAGCPNIGECWSQRHASFMILGEICTRACAFCNVATGIPFAVDENEPERVADAVARMELKHVVITSVDRDDLADGGAEHFAKVIYAIRRKAPKTTIEVLTPDFRHKDGALEIVVAAKPDVFNHNLETVPSKYLKVRPGARYFHSIRLLQRVKELDPTIFTKSGIMVGLGEERNEILQLMDDLRSADVDFMTIGQYLQPTRKHHPVIRFVPPEEFESFAKIGKVKGFLHMASNPLTRSSHHAGDDFAILQKARDEKFALQR | not soluble
MGSDKIHHHHHHMHVIKAKDDYTYRHTVGVSILSRLIGTWLKLDEVILKELTLGAVLHDIGKVEIPDAILNKPGALTKDEYRIIQDHTVKGYRIIQESGIYSDTVALMALEHHEREDGTGYPYQKTRNEIHLLSKILAVADVFHAMTSDRIYRKGMALYDVLLQMRQDRFGKLEPRITDFFVRRFMEQCIGSKARLNDGSRVEIVFIPYENPICPIVKQGTNYIDLRMSPLYIQELIPVTVKV | not soluble
DVQLQESGPGLVKPSQSLSLTCTVTGYSITSLYAWNWIRQFPGNKLEWMGYINYSGYTSYNPSLKSRISITRDTSKNQFFLQLHSVTTEDTATYSCTRGVDYFAMDYWGQGASVTVSSAKTTAPSVYPLAPVCGDTTGSSVTLGCLVKGYFPEPVTLTWNSGSLSSGVHTFPALLQSDLYTLSSSVTVTSNTWPSQSITCNVAHPASSTKVDKKIVPRD | soluble
MSLGKGVRDPGSDGSLRRKELAMIKVEDMMTRHPHTLLRTHTLNDAKHLMEALDIRHVPIVDANKKLLGIVSQRDLLAAQESSLQRSAQGDSLAFETPLFEVMHTDVTSVAPQAGLKESAIYMQKHKIGCLPVVAKDVLVGIITDSDFVTIAINLLELQEESEPDELDEEQEGGSHHHHHH | soluble
MGSDKIHHHHHHMKLLMIELHQEDCSNIAVSEKIKDAELNLVNVREDGDYTHIDAIFLGDMFKENVISTLRKEKAFNINLKMKSRSEIWVSYDILTTAAWRNFSSLGCTVVPPLRVANGVEKWFVYTPDEISQRDIKRQLEMDNATHISRIRELTLKSFLKVIFNMDFLSDFIDTMEALTDLQVKTIKQAYVNGYYDYPRRCTLGDLAKINGISKNAMAKRLKSVEKKIFECLFGYI | not soluble
MNRSMKQYDPIDFVVDWVDSNDISWKKKKSLYEENVISSVDDSQARYRDWGIFKYWFRAVEKNAPWVHKIFIITDHQNPKFLNKHSSKIVFVNHEDFIPNEYLPTFNSDAIEIGIQNIPGLSEHFVFFNDDMFINKPVKPIDFFDGNIPKDSGVMGPQFPISNSITHITVNNMEIINKYFLKKKVLRKYFFKFFNWRYGKDNIRTATALPWQVFIGFYDMHIPISFLKSTFDNVWSEVGNLLSQNYQHRFRSQLDYSVWLMRYFQLASGNFFPRRTRFGKYYNLGEQTEEIINDIKTGKHALIVLNDQESINDYPYEKKLVNEVFERRYSRKSEFENLEHHHHHH | not soluble
MSLVQWISPLDNSIVIASKVKILRNIKGIKFTKLLNEEEFNDLLSMVLGRLKEIDILDKCYVVKLKDGEEKIIDYYKENFGLIKYFENKDNLIFIMNKNGEFNILLNEEEHIGIECTNSGLSLREVYSKVDNLDDLIEEKIHYSFDSELGYLTSNIKNLGTALRAKVFIHLPLLSSNNLIRIIKNALKEEGITLKSIYNSGNKDVGNIYEVSNIKTLGMSEKDILDSLISITNKLILREKNQRDNLSKDEYIELKDDILRSLGVLRNTYSIDREGHHHHHH | not soluble
RSRLVQFQKNTDEPMGITLKMNELNHCIVARIMHGGMIHRQGTLHVGDEIREINGISVANQTVEQLQKMLREMRGSITFKIVPSYREF | soluble
MGSSHHHHHHGKTIFVIVPTNEEQVAFLEALAKQDELNFDWQNPPTEPGQPVVILIPSDMVEWFLEMLKAKGIPFTVYVEEGGSENLYFQGGGGGGCCSLLFFVYIAFSLIHTLHHLFLFSECNISADERMDVPSEDYDVSIMIKAIHEVQDVLTSRQFATFSEVDTEIGKTLKRYEAFGDGFERFHVNLTKDALQSNDLQKSLKDMDKRCQDRLRDCASSQKDQINDILPFIRNTSSILVHGSGNLLALTIACSIQEHEGVRFYICEGRPARKGYPHGSGEQLLEKVLATPEGMRLKDKLHKYCTIVPDSGVSSVMNSVDFVIMGAYCVTEHGGLVHSTGSLQIAIVAAFRNVPCYVLCETFKFAHIFPLSTDDLKQPENGAGEVVPLVEFVPPSMITLIFSEQGIMPPSAVADEMFRFHTAPSAPGKRR | not soluble
MASIGRAIVRVPKNVKKGQIFKVQMVIIHPMETGLRKDPKTGKKIPAHYITHVDLYFNGKLVTKINTSPGISKNPYFAIKMKAEEAGTLKIVYEDNKGGKWEKEVKINVA | not soluble
MSYGDGLSGAEYLASIYGTEKDKVNCSFFFKTGACRHGDKCSRAHHTPTFSPTVVLKNFYHNPVVDVRQADAFDKVGKRNDQEQRYFDDFYEEVFVEMERKYGEVEEINVCENIGEHMVGNVYVKFMKEEDAEKAKNDLNNRWFNGQPIYAELCPVTDFRESRCRQHEVTTCSKGGFCNFMHLKAISAELGDRLYGRRGRRADAAGHYPSQRGGSGGGGGGGGGGGYGSGGGWGGGGGGRDRDRGGWGGGGGGRGYGGGGGGGGYGYGGGGGGRRRSRSRDRRRY | not soluble
MADLRKAARGRECQVRIPGVCNGNPETSVLAHIRLTGLCGTGTKPPDLIATIACSACHDEIDRRTHFVDAGYAKECALEGMARTQVIWLKEGVIKA | soluble
MAHHHHHHMESIKAKCTAKNLVNEKPAQKTPLSISISEKHKAQLREAFDLFDSEGTGRIKALDVKVALCALGYDVSKEELTQLLKQVGGSIVGGVDFNEFYCVLLAKMMQRESRSEAIRAFRLIDVAEKGYISVDDLRPIADSLEMDLTDDELAEMVLFAHPPVGFGKNENDIKEPLTVSEEEFLKLMGRAHVY | soluble
KVKVPYLRLSLPELHIDMDFLKKTVDFSSISALQQTVLYIGRLLVQSGINTLGVDAVAAFNAVSIIDSYVLAPGDSLAASITTFTAQNKGGKQYHRIPKG | not soluble
MGSDKIHHHHHHMTAPHTETDSTQQFLDSMPELKPGEKFQFACHPGVACFNACCSDLTMPLSPYDVLRLRQETGQDSEGFISTFARVETYPDTNFPILYMKMTDGPVRPCPFVSQAGCQVYPNRPAACRTYPLGRGTRVDAQGRLVEQYFIIAEQHCHGFAEEPVWTSEEWLQDQGLARYNYFGDRYTRLMGRAMETGLVLTQKQLTLCLLALYEADRFGAFISGVNLFARLNVSAQEQARILEDEEARLEFGFDWTELVLFGDNERLQVVNP | not soluble
RAAIHDIATPVAIVDEQGRVVNLNAAAEQMLAVDKHEALTEPLNDFLGGDDIATDGGSSRVSIEADGRHREYKVQQTALRDETGTQLGYTVVFQDIT | soluble
IPMRLLSDCPQFSRKTVKLLTNGGDMLELCYELRLPFVHWISVNQKSSFKRYEISHVYRRAIGHSPPNPCLQADFDIVGGTLSLTEAEVLKVIVDITTHIFHRGSCDIHLNHGDLLDAIWSWAGIKAEHRRKVAELLSMMGSLRPQSSERKLKWVFIRRQLLQELKLPEAVVNRLQTVASRFCGDADQALPRLRGALRADRPTRKALDELSNLLTYLRVWRIEEHVHIDVLMPPTESYHRNLFFQVFLTKENSSGTSNDGVLLAVGGRYDWLVQEVCDREHKMNLPGAVGVSLALETIFQHLPMDLRPIRNEVSTSVLVCSRGGGGLLVQRMELVAELWEKSIKAEFVPTPDPSLTEQYEYANEHEIKCLVIITESGVAQNQIEFVKVRHLELKKEKVVGR | soluble
